Source: patent US20220396632A1 (VERSEAU THERAPEUTICS, published 2022)
Substitutions are numbered along the chain they refer to.

T1: Biotin PSGL-1(42-62) D52A peptide (C-terminal Lys-biotin)
T1 peptide: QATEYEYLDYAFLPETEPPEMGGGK

T2: Biotin PSGL-1(42-62) P55A peptide (C-terminal Lys-biotin)
T2 peptide: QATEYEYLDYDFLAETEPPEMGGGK

T3: Recombinant human PSGL-1(ECD)-hFc1 (R&D Systems, Cat. 3345-PS) (human, UniProt Q14242 42-305)
T3 construct: Bought; Gln42-Val295 counted on AAC50061; also called PSGL-1-Fc; PSGL-1-hFc1 chimera; not shown: human IgG1 Fc, Pro100-Lys330
T3 sequence: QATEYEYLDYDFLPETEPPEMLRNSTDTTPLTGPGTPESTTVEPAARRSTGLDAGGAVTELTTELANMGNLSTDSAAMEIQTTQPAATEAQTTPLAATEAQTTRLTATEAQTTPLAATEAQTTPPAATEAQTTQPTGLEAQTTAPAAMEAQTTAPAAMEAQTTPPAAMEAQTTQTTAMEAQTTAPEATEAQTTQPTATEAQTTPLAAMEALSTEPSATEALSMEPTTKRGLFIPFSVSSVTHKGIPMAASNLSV

T4: Biotin sY51 PSGL-1(42-62) peptide (human, sulfotyrosine at Y51; C-terminal Lys-biotin)
T4 construct: also called Y51(SO3) PSGL-1(42-62)
T4 peptide: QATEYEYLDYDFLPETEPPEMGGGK

T5: Biotin Y46,48,51(SO3) PSGL-1(42-62) peptide (human, sulfotyrosine at Y46, Y48 and Y51; C-terminal Lys-biotin)
T5 construct: also called fully sulfated N-terminal PSGL-1 peptide
T5 peptide: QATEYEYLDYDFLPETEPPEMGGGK

T6: Biotin sY46 PSGL-1(42-62) peptide (human, sulfotyrosine at Y46; C-terminal Lys-biotin)
T6 peptide: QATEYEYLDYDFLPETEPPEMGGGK

T7: Biotin sY48 PSGL-1(42-62) peptide (human, sulfotyrosine at Y48; C-terminal Lys-biotin)
T7 construct: also called sY48S
T7 peptide: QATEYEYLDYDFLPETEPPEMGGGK

B1: 19I01 (antibody, V domains shown)
VH: EVQLVESGGGLVKPGGSRKLSCAASGFTFSDYGMHWVRQAPEKGLEWVAYISSGSSTIYYADTVKGRFTISRDNAKNTLFLQMTSLRSEDTAMYYCARGVDGYWGQGTTLTVSS
VL: DVVMTQTPLSLPVSLGDQASISCRSSQSLVHSNGNTYLHWYLQKPGQSPKFLIYKVSNRFSGVPDRFSGSGSGTDFTLKISRVEAEDLGVYFCSQTTHVPLTFGAGTKLELK
notes: From mouse immunisation; only variable domains given; also called 19101
B2: 18F02 (antibody, V domains shown)
VH: QVQLQQPGAELVKPGASVKLSCKASGYTFTSYWMHWVKQRPGQGLEWIGMIHPNSGRTNYNEKFKSKATLTVDKSSSTAYMQLSSLTSEDSAVYYCARSDYWGQGTTLTVSS
VL: DIVMTQAAFSNPVTLGTSASISCRSSKSLLHSDGITYLYWFLQRPGQSPQLLIYRMSNLASGVPDRFSGSGSGTDFTLRISRVEAEDVGVYYCAQMLEFPRTFGGGTKLEIK
notes: From mouse immunisation; only variable domains given
B3: 43B6 (antibody, V domains shown)
VH: EVQLQQSGPDLVKPGALVKISCKASGYSFTAYYIHWVKQSHGKSLEWIGRVNPNTGGTSYNPKFKGKAILNVDKSSSTAYMELRSLTSEDSAVYYCARSGSPYYRYDDWGQGTTLTVSS
VL: ENVLTQSPAIMSASPGEKVTMTCRASSTVNSTYLHWFQQKSGASPKLWIYGSSNLASGVPARFSGSGSGTSYSLTISSVEAEDAATYYCQQYSGYPLTFGAGTTLELK
notes: Control anti-PSGL-1 mAb, recombinant; only variable domains given; also called 43B3
B4: 18K07 (antibody, V domains shown)
VH: QIQLVQSGPELKKPGETVKISCEASGYTFTTYGMNWVKQAPGKGLKWMGWINTYSGVPTYADDFQGRFAFSVETSATTAYLQINNLKNEDAATYFCARSDDTYYGFAYWGQGTLVTVSA
VL: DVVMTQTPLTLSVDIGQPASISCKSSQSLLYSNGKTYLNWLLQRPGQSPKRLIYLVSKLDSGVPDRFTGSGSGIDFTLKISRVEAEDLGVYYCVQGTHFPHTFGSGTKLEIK
notes: as for B2
B5: 03D07 (antibody, IgG4, V domains shown)
VH: EVKLLESGGGLVQPGGSLRLSCAASGFTFSSYALSWVRQAPGKGLEWVSAISGSGGNTYYADSVKGRFTISRDNSKNTLYLQMNSLRAEDTAVYYCAKVVGATNYWGQGTLVTVSS
VL: DIVMTQTPLSLPVTLGQPASISCRSSQSLVYSDGHTYLSWFHQRPGQSPRRLIYKVSIRDSGVPDRFSGSGSGTDFTLKISRVEAEDVGVYYCMQRLQIPLTFGGGTKVEIK
B6: 5E12 (antibody, V domains shown)
VH: EIQLQQSGAELVRPGASVKLSCTASGFNIKDDYIHWVKQRPEQGLEWIGRIDPANGNTKSAPKFQDKATITADTSSNTAYLHLSSLTSEDTAVYYCSIRFAYWGQGTLVTVSA
VL: DVVMTQTPLSLSVSLGDQASISCRSSQSLVYRNGDTYLHWFLQKPGQSPKLLIYKVSNRFSGVPDRFSGSGSGTDFTLKISRVEAEDLGIYFCSQNTHVPYTFGGGTKLEIK
notes: Mouse hybridoma mAb; only variable domains given
B7: 16L15 (antibody, V domains shown)
VH: DVKLVESGGGLVKLGGSLKLSCAASGFTFSSYYMSWVRQTPEKRLEWVATISNGGGSTYYPDSVKDRFTISRDNAKNTLYLQMSSLNSEDTAVYYCAKPLYYSNPWFAYWGQGTLVTVSA
VL: DVLLTQTPLSLPVSLGDQASISCRSSQSIVHSNGNTYLEWYLQKPGQSPKLLIYKVSNRFSGVPDRFSGSGSGTDFTLKISRVEAEDLGVYYCFQGSHVPRTFGGGTKLEIK
notes: as for B2
B8: 9F9 (antibody, V domains shown)
VH: EVQLVETGGGLVQPKGSLKLSCAASGFTFNTNAMNWVRQAPGKGLEWVARIRSKSNNYATYYADSVKDRFTISRDDTQSMIYLQMNNLKTEDTGMYYCVRGGSYWYFDVWGAGTTVTVSS
VL: B7 VL with L4M, H31N, R101W
notes: Control anti-PSGL-1 mAb, recombinant; only variable domains given; also called 9F6
B9: 16E17 (antibody, V domains shown)
VH: QIQLVQSGPELKKPGETVKISCKASGYAFTTYGMSWVKQAPGKGLKWMGWINTYSGVPKYADDFKGRFAFSLETSASTAYLHINNLKNEDTATYFCGRHYYGSSYFDYWGQGTTLTVSS
VL: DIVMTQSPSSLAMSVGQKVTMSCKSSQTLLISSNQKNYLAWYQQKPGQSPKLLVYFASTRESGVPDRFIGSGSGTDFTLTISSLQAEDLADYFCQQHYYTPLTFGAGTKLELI
notes: as for B2
B10: 19L04 (antibody, IgG4, V domains shown)
VH: B9 VH with A28T, K59T, H82Q, N88I, G97A, S104H
VL: DIMMTQSPSSLAMSVGQKVTLRCKSSQSLLNSSNQKNYLAWYQQKPGQSPKLLVYFASTRESGVPVRFIGSGSGTDFTLTISSMQAEDLADYFCQQHYFSPLTFGAGTKLELK
notes: as for B2
B11: 19N05 (antibody, V domains shown)
VH: B9 VH with A28T, K59T, Y60F, H82Q, Y94F, G97A, H99N, S103N, S104H
VL: DVQITQSPSYLAASPGETISINCRASNNINKYLAWYQEKPGKTNKLLIYSGSTLQSGIPSRFSGSGSGTDFTLTISSLEPEDFAMYHCQQHNYYPLTFGAGTKLELK
notes: as for B2

Columns and labels:
[1] = target: T8, Human complement C4 protein (Millipore Sigma, Cat. 204886) (human, UniProt P0C0L4 20-675; P0C0L4 680-1446; P0C0L4 1454-1744, limits assumed, natural sulfotyrosines); assay: ELISA, 50 nM mAb on plate-bound protein
T8 construct: mature
T8 sequence (P0C0L4 20-675 limits assumed, form in doubt, chain 1 of 3): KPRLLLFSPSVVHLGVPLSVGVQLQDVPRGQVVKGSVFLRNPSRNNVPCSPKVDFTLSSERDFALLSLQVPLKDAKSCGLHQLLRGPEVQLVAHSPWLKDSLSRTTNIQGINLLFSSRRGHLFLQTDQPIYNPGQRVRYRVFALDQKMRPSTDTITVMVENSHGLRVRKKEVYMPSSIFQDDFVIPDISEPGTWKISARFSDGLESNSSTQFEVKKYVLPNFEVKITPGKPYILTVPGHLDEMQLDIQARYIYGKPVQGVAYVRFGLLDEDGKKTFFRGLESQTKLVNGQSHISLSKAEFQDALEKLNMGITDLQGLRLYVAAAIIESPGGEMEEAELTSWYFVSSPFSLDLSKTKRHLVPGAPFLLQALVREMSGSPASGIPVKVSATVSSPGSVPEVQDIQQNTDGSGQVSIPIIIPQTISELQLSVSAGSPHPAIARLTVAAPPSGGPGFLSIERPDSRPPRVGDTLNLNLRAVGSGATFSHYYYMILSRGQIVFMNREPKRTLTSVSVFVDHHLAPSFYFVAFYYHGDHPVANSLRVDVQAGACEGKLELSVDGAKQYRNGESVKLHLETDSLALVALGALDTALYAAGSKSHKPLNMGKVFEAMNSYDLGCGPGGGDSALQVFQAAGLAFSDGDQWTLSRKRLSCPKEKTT
T8 sequence (P0C0L4 680-1446 limits assumed, form in doubt, chain 2 of 3): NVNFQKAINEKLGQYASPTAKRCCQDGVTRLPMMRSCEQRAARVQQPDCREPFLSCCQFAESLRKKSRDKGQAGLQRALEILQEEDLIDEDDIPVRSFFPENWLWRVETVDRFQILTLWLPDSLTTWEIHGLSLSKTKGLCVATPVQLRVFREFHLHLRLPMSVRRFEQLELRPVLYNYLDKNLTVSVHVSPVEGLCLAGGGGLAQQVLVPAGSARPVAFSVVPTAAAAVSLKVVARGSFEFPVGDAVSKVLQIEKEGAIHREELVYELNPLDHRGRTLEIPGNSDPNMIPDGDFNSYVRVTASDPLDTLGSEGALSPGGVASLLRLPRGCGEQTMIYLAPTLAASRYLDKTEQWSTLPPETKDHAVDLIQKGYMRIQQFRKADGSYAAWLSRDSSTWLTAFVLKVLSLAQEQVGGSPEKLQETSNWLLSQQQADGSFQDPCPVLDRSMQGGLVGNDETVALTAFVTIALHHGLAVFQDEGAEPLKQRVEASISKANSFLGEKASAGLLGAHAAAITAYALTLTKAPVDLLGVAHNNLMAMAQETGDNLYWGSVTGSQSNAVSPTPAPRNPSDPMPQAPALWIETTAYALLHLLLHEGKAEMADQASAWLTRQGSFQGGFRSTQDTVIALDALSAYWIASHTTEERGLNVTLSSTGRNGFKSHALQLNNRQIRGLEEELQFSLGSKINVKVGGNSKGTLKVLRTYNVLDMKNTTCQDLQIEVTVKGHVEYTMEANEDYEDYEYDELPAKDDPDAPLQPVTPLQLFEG
T8 sequence (P0C0L4 1454-1744 limits assumed, form in doubt, chain 3 of 3): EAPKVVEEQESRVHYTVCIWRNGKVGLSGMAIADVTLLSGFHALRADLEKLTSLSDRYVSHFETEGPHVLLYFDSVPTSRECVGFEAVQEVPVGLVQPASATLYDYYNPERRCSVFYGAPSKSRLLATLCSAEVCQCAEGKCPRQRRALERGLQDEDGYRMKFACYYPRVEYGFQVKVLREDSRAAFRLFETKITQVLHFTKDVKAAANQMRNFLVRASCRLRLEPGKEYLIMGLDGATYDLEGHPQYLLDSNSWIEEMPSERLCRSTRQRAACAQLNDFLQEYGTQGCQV
Procedure: Recombinant PSGL-1-hFc1 chimera protein consisting of PSGL-1's extracellular domain (ECD) served as a positive control. […] Primary antibody was added (25 ul per well) in duplicate at 50 nM in assay buffer (blocking buffer containing 0.05% Tween®20) into test and control (just blocked) wells and the plate incubated for 45 min at 37° C.

[2] = target: T1, Biotin PSGL-1(42-62) D52A peptide; assay: ELISA; against wild-type PSGL-1 42-62
[3] = target: T2, Biotin PSGL-1(42-62) P55A peptide; assay: ELISA; against wild-type PSGL-1 42-62
[4] = target: T3, Recombinant human PSGL-1(ECD)-hFc1 (R&D …); assay: Octet tandem; competitor 16E17
Procedure: (§1) Antibody binning was performed by ForteBio Octet® using a tandem assay format, with anti-human IgG biosensor-immobilized PSGL-1(ECD)-hFc1 protein, binding of competitor mAb followed by analyte antibody. As competition controls, the same antibody was competed against itself, and mAb competition was performed bidirectionally.
(§2) Antibody binning by tandem octet was performed by immobilizing 10 ug/mL PSGL-1(ECD)-hFc1 (R&D Systems, Cat. #3345-PS) in PBS, pH 7.4, onto anti-human IgG capture biosensors (ForteBio, Cat. #18-5060), binding of 100 nM competitor antibody for 300 sec., followed by binding of 100 nM of analyte mAb for 300 s in kinetic buffer (0.1% BSA in PBS containing 0.02% tween 20 and 0.05% sodium azide, pH 7.4). Synagis (Johnson et al. (1997) J. Infect. Dis. 176:1215-1224) served as a negative control mAb for competition. An Fc quench step (0.25 mg/mL human IgG Fcl; BioXcell, Cat. #BE0096, in kinetic buffer) was included when human mAbs were tested to prevent high background from the antibodies binding to the anti-human IgG biosensor. Biosensor regeneration buffer consisted of 10 mM glycine, pH 2.0.

[5] = target: T3, Recombinant human PSGL-1(ECD)-hFc1 (R&D …); assay: Octet tandem; competitor 18K07
Procedure: as §1, §2

[6] = target: T3, Recombinant human PSGL-1(ECD)-hFc1 (R&D …); assay: Octet tandem; competitor 19J23
Procedure: as §1, §2

[7] = target: T3, Recombinant human PSGL-1(ECD)-hFc1 (R&D …); assay: Octet tandem; competitor 19N05
Procedure: as §1, §2

[8] = target: T3, Recombinant human PSGL-1(ECD)-hFc1 (R&D …); assay: Octet tandem; competitor 20G13
Procedure: as §1, §2

[9] = target: T4, Biotin sY51 PSGL-1(42-62) peptide; assay: capture ELISA; against 3 x sY peptide
Procedure: (§3) Two ELISA methods were performed. One procedure detected mAb binding to its plate-immobilized target and the other measured the immobilized antibody's ability to capture biotinylated PSGL-1₄₂₋₆₂. […] The plate was incubated for 45 min at 37° C. Plates were washed 3 times with wash buffer (PBS containing 0.05% tween 20, pH 7.4) and a single concentration (2 to 500 nM) or serially diluted (0.002-100 nM) anti-PSGL-1 mAb was added (25 ul/well) in assay buffer into appropriate wells. The plate was incubated for 45 min at 37° C., washed 3 times, and an appropriate HRP-conjugated secondary antibody added (25 ul/well) (HRP goat anti-mouse or anti-human IgG). After 45 min incubation at 37° C., the plate was washed, and antibody bound to plate-immobilized target was determined at A450 nm using HRP substrate (3,3′,5,5′-etramethylbenzidine (TMB)). For each antibody, duplicate values were averaged and assay background was subtracted. Except for the following, ELISAs involving plate-immobilized mAb capturing of biotinylated PSGL-1₄₂₋₆₂ peptides was performed in the same manner as described above: 3 ug/mL/25 ul per well of mAb was coated directly onto microtiter plate wells; biotinylated unmodified or sulfotyrosine PSGL-1₄₂₋₆₂ was serially diluted (3 nM-3 uM) into appropriate wells, and antibody-bound peptide was detected using HRP-streptavidin (Jackson Immunoresearch, Cat. #016-030-084).

[10] = target: T5, Biotin Y46,48,51(SO3) PSGL-1(42-62) …; assay: capture ELISA; against 3 x sY peptide
Procedure: as §3

[11] = target: T6, Biotin sY46 PSGL-1(42-62) peptide; assay: capture ELISA; against 3 x sY peptide
Procedure: as §3

[12] = target: T7, Biotin sY48 PSGL-1(42-62) peptide; assay: capture ELISA; against 3 x sY peptide
Procedure: as §3

Binder	% of binding to PSGL-1(ECD)-hFc1 [1] [%]	% binding of analyte mAb [4] [%]	% binding of analyte mAb [5] [%]	% binding of analyte mAb [6] [%]	% binding of analyte mAb [7] [%]	% binding of analyte mAb [8] [%]	also measured
B1	≤ 10						EC50Ala/EC50 wt [2]: 15.9 fold; EC50Ala/EC50 wt [3]: 68.4 fold
B2	≤ 10						EC50Ala/EC50 wt [2]: > 100 fold
B3							EC50Ala/EC50 wt [3]: 9.5 fold
B4		11.7	35.2	92.9	0	0	
B5							EC50/EC50 3x(SO3)Y [9]: ~5 fold; EC50/EC50 3x(SO3)Y [10]: 1 fold; EC50/EC50 3x(SO3)Y [11]: 25 fold; EC50/EC50 3x(SO3)Y [12]: > 100 fold
B6	≤ 10						
B7	≤ 10						EC50Ala/EC50 wt [2]: 21 fold
B8							EC50Ala/EC50 wt [3]: > 100 fold
B9		16.3	67.4	103	5.1	32.4	
B10		61.9	50.5	104	44.3	0	
B11		29.1	0	125	69.4	0	
